Results reported in paper PMC6167206 (Molecular microbiology, 2018).

Molecular target: the molecule itself
Test: cross-linking

B1: AcpA-His (natural protein)
chain: MEKDISRKIDLLNILIEEKRWFTLFELEKNLNCSSKTIRKDISIINDLLPKTIFIHSKKGKGVKLSLPQNQSISEAISNLLKKSLTFLAIQQLLEERSNTVTSLADKLYLPISSTNIVLKRVSKYIKKFGLSLEKKPLRIVGDEFQIILMFSERYLESYPDTEWPFTEYKEEMLIDYINYIEEKLEIVFYSNDKRRMAFIMTILFKRIKQGHKVKFSEWIIKETMESIYYKKIFEGKNVIKVNKNRSLNIEEQVLLVIMVKLSRYVSKDENNLKQEELVLYKEGESTTYTYVKNFISILEQELKIDLNNNEEFVYGMIEYCREAFHILKFIPILKAPEKDTCKYIKKHYEETFYLVKRAYNKWGAEMKLTDIPDEEIAKVTMRIVAIGKQHNINRKKVLLITGEGKSWEEYMKSRINKRYGDQLKFVGGHAKILNGNTDNIDNIDIDFIITTVPLNFSWKSIVYVSPILQERDFYEIGIFASK
  stoichiometry N: 2
